Experimental data from US20050064507A1, “Determining kinase specificity” (priority 2003, published 2005).

Columns and labels:
PKC-delta = biological target: T1, PKC-delta (Homo sapiens, UniProt Q05655); experiment: In vitro kinase assay: peptide phosphorylation by PKC-delta; type: biochemical; conditions: peptide concentration of 10 nM; percentage of phosphorylation of the best validating peptide substrate
T1 construct: purchased Calbiochem
Source text: One approach to validating a substrate identification method can involve, for example, comparison of substrate sites predicted by the method with in vitro phosphorylation results obtained using the selected kinase and peptides of known sequences. Such a systematic validation has been performed for the methods described herein. For example, a panel of seventy five peptides was synthesized, the phosphorylation observed for each peptide was experimentally measured, the amount of phosphorylation was quantified, the phosphorylation results for each peptide were normalized to the phosphorylation observed with the best substrate tested and these amounts were compared with predictions made according to the invention and according to the procedures provided by others. These peptides are referred to herein as proteomic peptides because their sequences are chosen from proteins in the human proteome; unlike the test sets employed herein, these peptides include no degenerate positions
Table 2 compares the present predictions with actual measurements of phosphorylation on validating peptides. The method of synthesis of the validating peptides was as described elsewhere in the application, and each included an N-terminal linker sequence of biotinylated-Lys-dansylated-Lys-Pro-Pro-Gly (SEQ ID NO:231). The length of the remaining “core” of the validating peptides ranged from 12-21 residues with one to five S/T residues. In vitro phosphorylation of these validating peptides was measured in the manner described herein. […] In vitro phosphorylation results for the validating peptides were expressed as normalized values, namely as a percentage of phosphorylation of the best validating peptide substrate in the group.
(§1) The conditions of the kinase assay and the amount of active kinase used varied with the kinase and with the accuracy needed. For a typical experiment, 5-20 ng of kinase was used per well and each peptide pool was assayed in duplicate wells. Note that the absolute amount of kinase used was not usually a critical parameter, because the desired information related to specificity of the kinase not its absolute activity, and robustness of the assay depends on comparisons of the same amount of kinase on different peptides. The combination of kinase concentration and assay duration was modified to assure that the stoichiometry of peptide phosphorylation never exceeded 5%. The choice of kinase buffer depended on the kinase being analyzed. For studies of PKC, 100 mM HEPES, 0.05% Triton-X100, 1 mM CaCl2, 20 mM MgCl2, 0.2 mg/ml phosphatidyl serine (Avanti Polar Lipids), PMA 100 ng/ml was typically used. The lipid stock was prepared by transferring 3 mg phosphatidyl serine into iced mixture of 450 μl water plus 50 μl of 10% Triton-X100, sonicating 10 times on ice for 1 sec each.
(§2) The kinase reaction mixture was assembled by sequential addition to a tube held on ice of: 5 μl peptide (100 μM for final concentration of 10 μM), 15 μl of kinase (typically 5 ng/well, in appropriate kinase buffer), 30 μl of ATP (1 uCi/well of ^32P-gamma ATP in a stock of 167 μM cold ATP in the kinase buffer; for final concentration for 100 μM ATP). The mixture was rapidly warmed to desired reaction temperature (30° C. for PKC) and incubated for the desired duration (usually 10 minutes). The kinase assay was terminated by transfer to 4° C. water batch, and rapid addition of an equal volume (50 μl) of stop solution [0.1M ATP+0.1M EDTA in water, pH 8].
The peptides were then captured from the reaction mixture by transfer to a Reacti-Bind Streptavidin High Binding Capacity Coated Plates (HBC) (Pierce Biotechnology) as follows. The HBC plates were pre-rinsed three times with PBS/Tween PBS/Tween20 0.05% (PBS/Tween). […]

PKC-theta = biological target: T2, PKC-theta (Homo sapiens, UniProt Q04759); experiment: In vitro kinase assay: peptide phosphorylation by PKC-theta; type: biochemical; conditions: for Measured in vitro phosphorylation by PKC-theta: normalized to best substrate
T2 construct: His-tag; made in house; host or cells: baculovirus-infected Sf9 cells
T2 sequence (Q04759 whole entry): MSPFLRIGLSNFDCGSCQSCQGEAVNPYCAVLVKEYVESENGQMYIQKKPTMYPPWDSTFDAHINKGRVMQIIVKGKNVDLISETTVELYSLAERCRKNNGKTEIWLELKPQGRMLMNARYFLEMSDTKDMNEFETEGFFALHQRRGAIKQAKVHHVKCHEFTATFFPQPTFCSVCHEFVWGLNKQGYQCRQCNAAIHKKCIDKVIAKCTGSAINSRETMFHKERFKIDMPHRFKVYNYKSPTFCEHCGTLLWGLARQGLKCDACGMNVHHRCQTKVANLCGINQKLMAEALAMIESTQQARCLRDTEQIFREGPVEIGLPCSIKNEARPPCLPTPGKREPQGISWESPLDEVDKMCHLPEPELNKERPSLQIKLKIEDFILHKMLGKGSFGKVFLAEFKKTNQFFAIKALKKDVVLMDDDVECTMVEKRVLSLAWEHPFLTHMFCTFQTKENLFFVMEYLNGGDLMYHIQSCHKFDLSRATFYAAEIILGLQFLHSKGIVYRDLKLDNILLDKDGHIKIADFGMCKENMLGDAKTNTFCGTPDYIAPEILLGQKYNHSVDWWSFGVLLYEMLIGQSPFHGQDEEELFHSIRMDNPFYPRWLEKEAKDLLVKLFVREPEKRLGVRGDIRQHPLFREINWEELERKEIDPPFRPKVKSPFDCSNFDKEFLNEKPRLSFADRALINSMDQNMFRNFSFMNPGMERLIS
Source text: A second strategy for validation of the PSSM derived from the methods described herein is to identify sequences represented in the human proteome that have low percentiles derived from the PSSM, to synthesize peptides that have those sequences, and test the efficiency of phosphorylation of those peptides by the kinase of interest. […] The results are shown for individual peptides (FIG. 11, panel A) or for groups of peptides aggregated by percentile prediction (FIG. 11, panel B). As with the testing described above with prospectively chosen peptides, the percentile scores are highly predictive of phosphorylation by the relevant kinase.
An example of the purification procedure used for production of active kinase is as follows. A preparation of PKC-theta was prepared using a Gateway expression construct containing PKC-theta that was expressed in baculovirus, which were used to infect Sf9 cells. The cell pellet from a liter of baculovirus-infected Sf9 cells was resuspended in 20 volumes (60 ml) of extraction buffer (20 mM Na phosphate buffer pH 7.5, 500 mM NaCl, 5 mM pyrophosphate, 10% glycerol, 10 mM imidazole, 1 mM PMSF), sonicated twice for one minute (1 cm tip at 60% power and 50% duty cycle) and cell disruption was verified microscopically. The sample was adjusted to five mM MgCl2 and treated with one U benzonase/ml for an additional 20 minute on ice. The sample was clarified by centrifugation in a JA-20 rotor at 15K for 30 min at 4° C., filtered through a […] filter and applied at 0.5 ml/min to a one ml chelating sepharose column previously charged with nickel and equilibrated with extraction buffer. The column was washed with extraction buffer at one ml/min to baseline and eluted in a 20 ml gradient (20-500 mM imidazole in extraction buffer) into one ml fractions that were analyzed by SDS-PAGE. Fractions with the highest concentration of protein were pooled, were dialyzed twice against one liter of 20 mM Na PO4 pH 7.5, 50 mM NaCl buffer. The kinase pool was dialyzed twice against 20 mM HEPES pH 7.4, 100 mM NaCl, 2 mM EDTA, 5 mM DTT, 0.05% Triton-X-100. After dialysis, the sample was adjusted to 50% glycerol and quick-frozen in a dry ice/ethanol bath.
as §1
as §2, with “8]. […]” for “8].”

T1 sequence (Q05655 whole entry): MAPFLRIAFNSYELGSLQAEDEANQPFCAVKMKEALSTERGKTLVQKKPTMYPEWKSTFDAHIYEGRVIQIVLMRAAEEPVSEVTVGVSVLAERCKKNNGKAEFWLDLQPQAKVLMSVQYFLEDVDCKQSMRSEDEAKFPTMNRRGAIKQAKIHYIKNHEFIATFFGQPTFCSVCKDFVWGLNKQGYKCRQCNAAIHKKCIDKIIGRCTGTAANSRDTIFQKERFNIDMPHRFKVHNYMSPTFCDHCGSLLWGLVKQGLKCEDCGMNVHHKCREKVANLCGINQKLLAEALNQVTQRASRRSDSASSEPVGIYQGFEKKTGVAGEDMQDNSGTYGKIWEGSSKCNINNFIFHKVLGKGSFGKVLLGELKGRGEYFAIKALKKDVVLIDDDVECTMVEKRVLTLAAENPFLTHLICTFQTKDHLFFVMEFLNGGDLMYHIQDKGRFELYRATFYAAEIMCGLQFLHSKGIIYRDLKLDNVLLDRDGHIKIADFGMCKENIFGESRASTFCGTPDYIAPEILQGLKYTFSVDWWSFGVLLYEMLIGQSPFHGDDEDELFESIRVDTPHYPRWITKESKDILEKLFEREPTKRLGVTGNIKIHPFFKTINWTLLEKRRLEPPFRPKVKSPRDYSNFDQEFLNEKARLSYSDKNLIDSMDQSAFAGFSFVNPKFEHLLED

Substance | Measured in vitro phosphorylation by PKC-theta (PKC-theta) [%] | other results
70 (HERKGSDKRGDNQ) [compound 70] |  | Measured in vitro phosphorylation by PKC-delta (PKC-delta): 1%
71 (RRRQKRRTGALVLSRGGKR) [compound 71] |  | Measured in vitro phosphorylation by PKC-delta (PKC-delta): 1%
72 (LTDPKEDPIYDEPEGLAPVPG) [compound 72] |  | Measured in vitro phosphorylation by PKC-delta (PKC-delta): 0%
73 (IDYYKKTTNGRLPVK) [compound 73] |  | Measured in vitro phosphorylation by PKC-delta (PKC-delta): 0%
74 (IDYYKKTSNGRLPVK) [compound 74] |  | Measured in vitro phosphorylation by PKC-delta (PKC-delta): 0%
168 (AMSRSASKRRSR) [compound 168] | 100 | 
169 (RTRSRRLTFRK) [compound 169] | 100 | 
170 (VKLRRSKKRTKR) [compound 170] | 98 | 
171 (RRGRRSTKKRRR) [compound 171] | 92 | 
172 (VRRRRSQRISQR) [compound 172] | 86 | 
173 (RSGRRRGSQKS) [compound 173] | 85 | 
174 (KKERRRNSINRN) [compound 174] | 83 | 
175 (KKRRTKSSRRGV) [compound 175] | 80 | 
176 (RRERSRSRRKQ) [compound 176] | 66 | 
177 (RRRRRRSRTFSR) [compound 177] | 66 | 
178 (RRRRSRTFSRS) [compound 178] | 65 | 
179 (KRHYRKSVRSRS) [compound 179] | 65 | 
180 (FLRRSSSRRNRS) [compound 180] | 65 | 
181 (TGERKRKSVRG) [compound 181] | 62 | 
182 (TKKKRGSYRGGS) [compound 182] | 61 | 
183 (ARRSKRSRRRET) [compound 183] | 55 | 
184 (FRASSRSTTK) [compound 184] | 54 | 
185 (KKFKRRLSLTLR) [compound 185] | 51 | 
186 (DFRRRRSFRRIA) [compound 186] | 50 | 
187 (LRRKSSTRHIHA) [compound 187] | 48 | 
188 (ERGRRGSKKGSI) [compound 188] | 44 | 
189 (GRRRRSRSKVK) [compound 189] | 43 | 

Substance | Measured in vitro phosphorylation by PKC-theta (PKC-theta) [%] | other results
190 (RRRRHTMDKDSR) [compound 190] | 40 | 
191 (HKRNSVRLVIR) [compound 191] | 38 | 
192 (GNRKGKSKKWRQ) [compound 192] | 35 | 
193 (PLRKSSLKKGGR) [compound 193] | 35 | 
194 (KRRKRKSLQRHK) [compound 194] | 34 | 
195 (PGSSHRKTKK) [compound 195] | 33 | 
196 (RWKRRRSYSREH) [compound 196] | 32 | 
197 (ILRPSKSVKLRS) [compound 197] | 32 | 
198 (RRRRPTKSKGSK) [compound 198] | 28 | 
199 (RGRRSRSRLRRR) [compound 199] | 27 | 
200 (EQQRRALSFRQ) [compound 200] | 26 | 
201 (TQDRRKSLFKKI) [compound 201] | 25 | 
202 (VMKRKFSLRAAE) [compound 202] | 24 | 
203 (VRRSKKSKKKES) [compound 203] | 24 | 
204 (RFSRRSSSWRIL) [compound 204] | 22 | 
205 (EGRRSRSRRYSG) [compound 205] | 22 | 
206 (KSSRNSTSVKKK) [compound 206] | 19 | 
207 (SFRGHITRKKLK) [compound 207] | 18 | 
208 (VSRPRKSRKRVD) [compound 208] | 17 | 
209 (DKEKSKGSLKRK) [compound 209] | 17 | in vitro phosphorylation by PKC (PKC-theta): phosphorylated by PKC
210 (PLRRRESMHVEQ) [compound 210] | 16 | 
211 (RSRSYSRSRSR) [compound 211] | 16 | 
212 (VSRGSSLKILSK) [compound 212] | 13 | 
213 (RHSRSRSRHRLS) [compound 213] | 13 | 
214 (SRRRSPSYSRHS) [compound 214] | 13 | 
215 (TKKRSKSRSKER) [compound 215] | 12 | 
216 (SCRTSSRKRAGK) [compound 216] | 11 | 
